Measurements reported in patent US20240132615A1 (ICHNOS SCIENCES, published 2024).

B1: Anti-CD38-UCP01-F1 Fab (Fab, V domains shown)
VH: QVQLVQSGAEVKKPGSSVKVSCKASGGVFSLYTITWVRQAPGQGLEWMGSIIPLLGDPEYAQKFQGRVTITADESTSTAYMELSSLRSEDTAVYYCARYPYPYGSKYFDIWGQGTLVTVSS
VL: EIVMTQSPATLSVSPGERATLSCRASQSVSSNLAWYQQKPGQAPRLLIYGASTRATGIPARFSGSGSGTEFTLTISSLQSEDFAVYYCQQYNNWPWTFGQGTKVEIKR
notes: Fab
B2: Anti-CD38-UCP03-H3 Fab (Fab, V domains shown)
VH: QVQLVQSGAEVKKPGSSVKVSCKASGGVFSQFPISWVRQAPGQGLEWMGGIIAGYGATEYAQKFQGRVTITADESTSTAYMELSSLRSEDTAVYYCARVYGGIDWGQGTLVTVSS
VL: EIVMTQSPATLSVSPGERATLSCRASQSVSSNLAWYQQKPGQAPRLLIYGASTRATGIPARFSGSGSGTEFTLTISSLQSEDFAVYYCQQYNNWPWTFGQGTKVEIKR
notes: Fab
B3: Anti-CD38-UCP03-A6 Fab (Fab, V domains shown)
VH: QVQLVQSGAEVKKPGSSVKVSCKASGGDFSLYAISWVRQAPGQGLEWMGGIIPLLGEPVYAQKFQGRVTITADESTSTAYMELSSLRSEDTAVYYCARGHRVYSSSPFDYWGQGTLVTVSS
VL: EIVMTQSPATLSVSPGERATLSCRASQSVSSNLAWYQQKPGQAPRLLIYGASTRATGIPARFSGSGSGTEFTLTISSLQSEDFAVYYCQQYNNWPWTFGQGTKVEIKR
notes: Fab
B4: Anti-CD3-C1-UCP01-H9 IgG1LALA (antibody, V domains shown)
VH: QVQLVQSGAEVKKPGSSVKVSCKASGGKFSRYAISWVRQAPGQGLEWMGGISPHVGYAEYAQKFQGRVTITADESTSTAYMELSSLRSEDTAVYYCARYGYSLYMDIWGQGTLVTVSS
VL: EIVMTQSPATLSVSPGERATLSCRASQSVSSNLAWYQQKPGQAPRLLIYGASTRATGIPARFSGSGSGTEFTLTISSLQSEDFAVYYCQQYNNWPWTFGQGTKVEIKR
notes: IgG1 LALA
B5: Anti-CD3-C1-UCP01-C11 IgG1LALA (antibody, V domains shown)
VH: QVQLVQSGAEVKKPGSSVKVSCKASGGKFSRYAISWVRQAPGQGLEWMGGINPHVGAPEYAQKFQGRVTITADESTSTAYMELSSLRSEDTAVYYCARYGYSLYMDIWGQGTLVTVSS
VL: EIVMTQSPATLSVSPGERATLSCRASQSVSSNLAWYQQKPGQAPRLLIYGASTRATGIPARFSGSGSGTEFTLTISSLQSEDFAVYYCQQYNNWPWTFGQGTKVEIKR
notes: IgG1 LALA
B6: Anti-CD3-C1-UCP01-B6 IgG1LALA (antibody, V domains shown)
VH: QVQLVQSGAEVKKPGSSVKVSCKASGGKFSRYAISWVRQAPGQGLEWMGGISPYQGYASYAQKFQGRVTITADESTSTAYMELSSLRSEDTAVYYCARYGYSLYMDIWGQGTLVTVSS
VL: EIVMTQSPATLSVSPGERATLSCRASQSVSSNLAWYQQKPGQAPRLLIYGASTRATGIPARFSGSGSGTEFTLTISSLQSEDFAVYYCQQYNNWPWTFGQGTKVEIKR
notes: IgG1 LALA
B7: Anti-CD3-C1-UCP01-E7 IgG1LALA (antibody, V domains shown)
VH: QVQLVQSGAEVKKPGSSVKVSCKASGGKFSRYAISWVRQAPGQGLEWMGGINPHLGEAEYAQKFQGRVTITADESTSTAYMELSSLRSEDTAVYYCARYGYSLYMDIWGQGTLVTVSS
VL: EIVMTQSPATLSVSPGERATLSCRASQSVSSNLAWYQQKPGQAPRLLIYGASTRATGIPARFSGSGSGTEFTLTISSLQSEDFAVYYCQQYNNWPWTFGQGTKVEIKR
notes: IgG1 LALA
B8: Anti-CD3-C1-UCP01-D6 IgG1LALA (antibody, V domains shown)
VH: QVQLVQSGAEVKKPGSSVKVSCKASGGKFSRYAISWVRQAPGQGLEWMGGITALGGYPNYAQKFQGRVTITADESTSTAYMELSSLRSEDTAVYYCARYGYSLYMDIWGQGTLVTVSS
VL: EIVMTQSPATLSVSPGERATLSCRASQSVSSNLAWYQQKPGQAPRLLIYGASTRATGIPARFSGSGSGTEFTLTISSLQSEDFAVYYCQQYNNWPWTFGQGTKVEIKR
notes: IgG1 LALA; also called anti-CD3-C1-D6; C1-D6
B9: Anti-CD3-C1-UCP01-D1 IgG1LALA (antibody, V domains shown)
VH: QVQLVQSGAEVKKPGSSVKVSCKASGGKFSRYAISWVRQAPGQGLEWMGGINPLSDEAQYAQKFQGRVTITADESTSTAYMELSSLRSEDTAVYYCARYGYSLYMDIWGQGTLVTVSS
VL: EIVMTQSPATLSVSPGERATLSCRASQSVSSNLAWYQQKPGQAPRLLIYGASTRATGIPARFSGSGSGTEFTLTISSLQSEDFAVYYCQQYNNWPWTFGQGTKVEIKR
notes: IgG1 LALA
B10: Anti-CD3-C1-UCP01-D4 IgG1LALA (antibody, V domains shown)
VH: QVQLVQSGAEVKKPGSSVKVSCKASGGKFSRYAISWVRQAPGQGLEWMGGINPIRGRPSYAQKFQGRVTITADESTSTAYMELSSLRSEDTAVYYCARYGYSLYMDIWGQGTLVTVSS
VL: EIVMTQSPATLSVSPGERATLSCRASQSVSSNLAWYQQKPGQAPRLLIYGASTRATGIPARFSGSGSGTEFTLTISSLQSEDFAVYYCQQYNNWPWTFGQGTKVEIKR
notes: IgG1 LALA
B11: Anti-CD38-UCP01-E2 FAB (Fab, V domains shown)
VH: QVQLVQSGAEVKKPGSSVKVSCKASGGSFSNYAIGWVRQAPGQGLEWMGRIIPVFGSAHYAQKFQGRVTITADESTSTAYMELSSLRSEDTAVYYCARGLGYYLYSSYYFDIWGQGTLVTVSS
VL: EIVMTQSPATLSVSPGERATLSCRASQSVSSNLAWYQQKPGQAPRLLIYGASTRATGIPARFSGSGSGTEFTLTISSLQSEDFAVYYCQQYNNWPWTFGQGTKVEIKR
notes: Fab; also called anti-CD38-E2; anti-CD38-E2 Fab
B12: Anti-CD38-UCP02-H1 Fab (Fab, V domains shown)
VH: QVQLVQSGAEVKKPGSSVKVSCKASGDKFNTYAISWVRQAPGQGLEWMGGITPRYDYAHYAQKFQGRVTITADESTSTAYMELSSLRSEDTAVYYCARSWGFRAGYLDYWGQGTLVTVSS
VL: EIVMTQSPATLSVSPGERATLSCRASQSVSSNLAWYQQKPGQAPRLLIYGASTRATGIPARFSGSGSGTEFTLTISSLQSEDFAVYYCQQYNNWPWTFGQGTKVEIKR
notes: Fab
B13: Anti-CD38-UCP03-H2 Fab (Fab, V domains shown)
VH: QVQLVQSGAEVKKPGSSVKVSCKASGGEFSIYVISWVRQAPGQGLEWMGRVIPSTGDTNYAQKFQGRVTITADESTSTAYMELSSLRSEDTAVYYCARGKAYYSGWLAIWGQGTLVTVSS
VL: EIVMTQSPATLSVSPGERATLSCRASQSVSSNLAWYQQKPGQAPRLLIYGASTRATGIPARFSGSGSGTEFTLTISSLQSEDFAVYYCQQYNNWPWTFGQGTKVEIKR
notes: Fab
B14: Anti-CD38-UCP01-C2 Fab (Fab, V domains shown)
VH: QVQLVQSGAEVKKPGSSVKVSCKASGGYLGIYAISWVRQAPGQGLEWMGRIIPILGEADYAQKFQGRVTITADESTSTAYMELSSLRSEDTAVYYCARGGVWWDYWGQGTLVTVSS
VL: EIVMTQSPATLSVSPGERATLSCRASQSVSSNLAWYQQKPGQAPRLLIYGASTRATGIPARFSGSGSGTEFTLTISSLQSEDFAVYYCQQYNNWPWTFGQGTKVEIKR
notes: Fab
B15: Anti-CD38-UCP02-F6 Fab (Fab, V domains shown)
VH: EVQLLESGGGLVQPGGSLRLSCAASGFTFSFYDMSWVRQAPGKGLEWVSAVSLYGDETYYADSVKGRFTISRDNSKNTLYLQMNSLRAEDTAVYYCAREPVSYDYYGSYFDYWGQGTLVTVSS
VL: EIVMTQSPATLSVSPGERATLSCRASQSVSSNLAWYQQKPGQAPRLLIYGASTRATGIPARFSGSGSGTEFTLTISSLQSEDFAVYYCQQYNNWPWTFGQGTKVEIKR
notes: Fab
B16: Anti-CD38-UCP03-E3 Fab (Fab, V domains shown)
VH: QVQLVQSGAEVKKPGSSVKVSCKASGGSFSIYAISWVRQAPGQGLEWMGGIIPNSGDTDYAQKFQGRVTITADESTSTAYMELSSLRSEDTAVYYCARGPYDSYGESYFDYWGQGTLVTVSS
VL: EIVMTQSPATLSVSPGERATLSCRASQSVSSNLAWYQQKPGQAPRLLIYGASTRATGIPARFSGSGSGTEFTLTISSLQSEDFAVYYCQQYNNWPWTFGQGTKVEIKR
notes: Fab
B17: Anti-CD38-UCP02-E5 Fab (Fab, V domains shown)
VH: QVQLVQSGAEVKKPGSSVKVSCKASGGGFRHYFISWVRQAPGQGLEWMGGIIPAAATPYYAQKFQGRVTITADESTSTAYMELSSLRSEDTAVYYCARGYWHWFDYWGQGTLVTVSS
VL: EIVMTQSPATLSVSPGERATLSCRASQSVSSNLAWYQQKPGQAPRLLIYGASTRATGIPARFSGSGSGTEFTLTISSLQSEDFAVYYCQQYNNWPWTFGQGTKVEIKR
notes: Fab
B18: Anti-CD38-UCP02-F2 Fab (Fab, V domains shown)
VH: QVQLVQSGAEVKKPGSSVKVSCKASGDVFSLLAIGWVRQAPGQGLEWMGRIIPSLDATHYAQKFQGRVTITADESTSTAYMELSSLRSEDTAVYYCARGRDVLRSYYFDIWGQGTLVTVSS
VL: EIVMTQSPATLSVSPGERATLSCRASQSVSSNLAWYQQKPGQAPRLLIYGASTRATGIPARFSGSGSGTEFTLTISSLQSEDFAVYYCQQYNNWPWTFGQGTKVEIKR
notes: Fab
B19: Anti-CD38-UCP02-D5 Fab (Fab, V domains shown)
VH: QVQLVQSGAEVKKPGSSVKVSCKASGGIFSVHAIHWVRQAPGQGLEWMGEIIPVIGEADYAQKFQGRVTITADESTSTAYMELSSLRSEDTAVYYCAREQYYYALGGGFDYWGQGTLVTVSS
VL: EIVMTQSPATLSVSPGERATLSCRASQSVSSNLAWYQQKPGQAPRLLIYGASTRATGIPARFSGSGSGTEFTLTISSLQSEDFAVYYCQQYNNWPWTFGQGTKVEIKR
notes: Fab
B20: Anti-CD38-UCP01-G1 Fab (Fab, V domains shown)
VH: QVQLVQSGAEVKKPGSSVKVSCKASGGGFSKYFITWVRQAPGQGLEWMGGVIPKIGYTSYAQKFQGRVTITADESTSTAYMELSSLRSEDTAVYYCARGSDDYASYSPLDSWGQGTLVTVSS
VL: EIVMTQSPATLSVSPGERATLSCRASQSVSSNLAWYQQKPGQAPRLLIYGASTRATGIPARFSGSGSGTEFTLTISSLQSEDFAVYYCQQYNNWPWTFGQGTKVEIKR
notes: Fab
B21: Anti-CD38-UCP02-F5 Fab (Fab, V domains shown)
VH: QVQLVQSGAEVKKPGSSVKVSCKASGGVFSYYTISWVRQAPGQGLEWMGRIIPSLGATHYAQKFQGRVTITADESTSTAYMELSSLRSEDTAVYYCARSDSFYYAYYMDLWGQGTLVTVSS
VL: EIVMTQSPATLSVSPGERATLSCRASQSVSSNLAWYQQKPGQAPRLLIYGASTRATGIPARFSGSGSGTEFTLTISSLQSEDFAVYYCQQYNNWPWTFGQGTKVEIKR
notes: Fab
B22: Anti-CD38-UCP03-B6 Fab (Fab, V domains shown)
VH: QVQLVQSGAEVKKPGSSVKVSCKASGGHISNSAINWVRQAPGQGLEWMGRVIPVIDDAYYAQKFQGRVTITADESTSTAYMELSSLRSEDTAVYYCARSRGYYGSFYFDIWGQGTLVTVSS
VL: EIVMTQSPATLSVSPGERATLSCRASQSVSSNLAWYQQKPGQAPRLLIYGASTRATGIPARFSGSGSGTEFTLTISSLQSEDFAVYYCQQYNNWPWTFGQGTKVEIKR
notes: Fab
B23: Anti-CD38-UCP03-H5 Fab (Fab, V domains shown)
VH: QVQLVQSGAEVKKPGSSVKVSCKASGGLFSFYAISWVRQAPGQGLEWMGGIIPFFGEPQYAQKFQGRVTITADESTSTAYMELSSLRSEDTAVYYCARGSYRFDVWGQGTLVTVSA
VL: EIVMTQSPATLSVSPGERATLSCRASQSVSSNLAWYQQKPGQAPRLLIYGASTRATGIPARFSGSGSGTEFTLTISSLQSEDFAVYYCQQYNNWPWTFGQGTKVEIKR
notes: Fab
B24: Anti-CD38-UCP01-H1 Fab (Fab, V domains shown)
VH: QVQLVQSGAEVKKPGSSVKVSCKASGDFFSGYAINWVRQAPGQGLEWMGRIIPLLGDTYYAQKFQGRVTITADESTSTAYMELSSLRSEDTAVYYCARSAAGWFAYWGQGTLVTVSS
VL: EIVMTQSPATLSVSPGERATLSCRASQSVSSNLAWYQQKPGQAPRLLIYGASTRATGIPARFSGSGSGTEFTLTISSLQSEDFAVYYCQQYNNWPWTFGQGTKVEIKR
notes: Fab
B25: Anti-CD38-UCP01-D1 Fab (Fab, V domains shown)
VH: QVQLVQSGAEVKKPGSSVKVSCKASGGIFNGYLISWVRQAPGQGLEWMGGIIPVNGLADYAQKFQGRVTITADESTSTAYMELSSLRSEDTAVYYCARTIGRYIIAFDYWGQGTLVTVSS
VL: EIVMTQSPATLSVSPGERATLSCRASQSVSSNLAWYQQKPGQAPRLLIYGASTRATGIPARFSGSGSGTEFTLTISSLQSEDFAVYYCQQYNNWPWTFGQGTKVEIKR
notes: Fab
B26: Anti-CD38-UCP03-C3 Fab (Fab, V domains shown)
VH: QVQLVQSGAEVKKPGSSVKVSCKASGGKFSNYAISWVRQAPGQGLEWMGRIIPQIGDAAYAQKFQGRVTITADESTSTAYMELSSLRSEDTAVYYCARASFLYYSYYFDYWGQGTLVTVSS
VL: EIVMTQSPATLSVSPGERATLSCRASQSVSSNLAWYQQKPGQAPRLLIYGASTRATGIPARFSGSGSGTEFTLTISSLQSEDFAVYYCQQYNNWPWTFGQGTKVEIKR
notes: Fab
B27: Anti-CD38-UCP03-C2 Fab (Fab, V domains shown)
VH: QVQLVQSGAEVKKPGSSVKVSCKASGGTFSNYAISWVRQAPGQGLEWMGGIIPAFGDAGYAQKFQGRVTITADESTSTAYMELSSLRSEDTAVYYCARGRVLYYSYYFDYWGQGTLVTVSS
VL: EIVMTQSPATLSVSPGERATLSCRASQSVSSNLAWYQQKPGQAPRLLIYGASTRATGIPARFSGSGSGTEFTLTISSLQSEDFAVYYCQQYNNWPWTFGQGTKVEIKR
notes: Fab
B28: Anti-CD38-UCP02-C3 Fab (Fab, V domains shown)
VH: QVQLVQSGAEVKKPGSSVKVSCKASGDYFNNYAINWVRQAPGQGLEWMGRIIPFLDDANYAQKFQGRVTITADESTSTAYMELSSLRSEDTAVYYCARATSPLYSYYFDYWGQGTLVTVSS
VL: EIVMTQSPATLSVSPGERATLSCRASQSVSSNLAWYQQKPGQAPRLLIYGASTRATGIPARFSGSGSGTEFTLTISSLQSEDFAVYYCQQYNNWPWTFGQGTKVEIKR
notes: Fab
B29: Anti-CD38-UCP02-B7 Fab (Fab, V domains shown)
VH: EVQLVESGGGLVKPGGSLRLSCAASGFSFNEAWMTWVRQAPGKGLEWVGRIKSYSDGGYTGYAAPVKGRFTISRDDSKNTLYLQMNSLKTEDTAVYYCARSPGIPYHYFDVWGQGTLVTVSS
VL: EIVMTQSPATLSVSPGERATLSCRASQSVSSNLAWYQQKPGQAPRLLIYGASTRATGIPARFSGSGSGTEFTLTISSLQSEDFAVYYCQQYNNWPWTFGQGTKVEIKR
notes: Fab
B30: Anti-CD38-UCP01-B1 Fab (Fab, V domains shown)
VH: QVQLVQSGAEVKKPGSSVKVSCKASGGDFDQYYISWVRQAPGQGLEWMGRIIPTLGDSQYAQKFQGRVTITADESTSTAYMELSSLRSEDTAVYYCARAVIVSPYYYIYVFDVWGQGTLVTVSS
VL: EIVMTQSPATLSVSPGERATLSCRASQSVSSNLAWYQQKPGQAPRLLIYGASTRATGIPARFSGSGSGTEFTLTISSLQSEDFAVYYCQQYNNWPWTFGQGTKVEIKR
notes: Fab
B31: Anti-CD38-UCP02-D1 Fab (Fab, V domains shown)
VH: QVQLVQSGAEVKKPGSSVKVSCKASGGDFDQYYISWVRQAPGQGLEWMGRIIPTLGDSQYAQKFQGRVTITADESTSTAYMELSSLRSEDTAVYYCARAVIVSPYYYIYVFDVWGQGTLVTVSS
VL: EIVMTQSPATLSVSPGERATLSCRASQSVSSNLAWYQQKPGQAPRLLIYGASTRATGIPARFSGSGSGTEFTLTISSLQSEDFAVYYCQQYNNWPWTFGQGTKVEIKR
notes: Fab

Experiments:
[1] = target: T1, recombinant cynomolgus monkey CD38-ECD-C-his protein (cynomolgus monkey, UniProt Q5VAN0 45-301); test: SPR, Fab as analyte, captured cynomolgus CD38-his
T1 construct: made in house; Q5VAN0 residues 43-301 (residue 44 deleted) with C-terminal 6-His; also called cynomolgus monkey CD38-C-His; recombinant cynomolgus monkey CD38 protein

[2] = target: T2, Biotinylated Human CD38 Protein, Avitag, His Tag (Acrobiosystems CD8-H82E7) (human, UniProt P28907 43-300, biotinylated); test: SPR, Fab as analyte, immobilised biotinylated human CD38;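 note: biacore T200 at 25 °C, single-cycle kinetics with Fab from 7.8 to 2000 nM, 3 min association then 5 min dissociation, fitted with a 1:1 Langmuir model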
T2 construct: bought protein; also called biotinylated recombinant human CD38 protein; human CD38-avi-his

[3] = target: T3, human CD3 on cells (HPB-ALL cells, primary human T cells) (human, UniProt P07766 23-207); test: flow cytometry, human CD4+ T cells
T3 construct: whole, on cells; only the epsilon chain is written
T3 sequence (P07766 23-207): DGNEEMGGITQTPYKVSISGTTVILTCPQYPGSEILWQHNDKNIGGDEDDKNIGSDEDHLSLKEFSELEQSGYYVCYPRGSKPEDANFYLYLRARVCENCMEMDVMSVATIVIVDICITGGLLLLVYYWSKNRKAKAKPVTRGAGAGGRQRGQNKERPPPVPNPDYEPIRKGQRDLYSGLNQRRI

Kd [1] [nM]	Kd [2] [nM]	MFI at 800 nM [3] [MFI]	binding result [1]	Binder
393	429	–	–	B1
178	810	–	–	B2
525	410	–	–	B3
–	–	133000	–	B4
–	–	119000	–	B5
–	–	109000	–	B6
–	–	82800	–	B7
–	–	178000	–	B8
–	–	52800	–	B9
–	–	126000	–	B10
89	110	–	–	B11
2.7	154	–	–	B12
672	1850	–	–	B13
53.5	85.3	–	–	B14
–	389	–	–	B15
195	300	–	–	B16

Kd [1] [nM]	Kd [2] [nM]	MFI at 800 nM [3] [MFI]	binding result [1]	Binder
–	0.03	–	–	B17
14	14.2	–	–	B18
33.5	192	–	–	B19
283	1120	–	–	B20
55.2	71.1	–	–	B21
829	225	–	–	B22
11	142	–	–	B23
352	437	–	–	B24
–	666	–	no binding	B25
465	117	–	–	B26
628	1390	–	–	B27
188	305	–	–	B28
–	1710	–	–	B29
102	193	–	–	B30
78	133	–	–	B31
